Source: patent US20160362487A1

Assays:
[1] = molecular target: human IL-33 (R&D Systems, #3625-IL-010/CF) (human) (UniProt O95760); experiment: BLI; hIL-33 pre-mixed with mAb-2 H4H9676P
[2] = molecular target: human IL-33 (R&D Systems, #3625-IL-010/CF) (human) (UniProt O95760); experiment: BLI; hIL-33 pre-mixed with mAb-2 H4H9667P
[3] = molecular target: human IL-33 (R&D Systems, #3625-IL-010/CF) (human) (UniProt O95760); experiment: BLI; hIL-33 pre-mixed with mAb-2 H4H9670P
[4] = molecular target: human IL-33 (R&D Systems, #3625-IL-010/CF) (human) (UniProt O95760); experiment: BLI; hIL-33 pre-mixed with mAb-2 H1M9559N
[5] = molecular target: cynomolgus monkey IL-33 expressed with a C-terminal hexahistidine tag (cynomolgus monkey); experiment: BLI; mAb-1 on captured MfIL-33-6His
[6] = molecular target: cynomolgus monkey IL-33 expressed with a C-terminal hexahistidine tag (cynomolgus monkey); experiment: BLI; captured MfIL-33-6His pre-complexed with mAb-1 H4H9665P
[7] = molecular target: cynomolgus monkey IL-33 expressed with a C-terminal hexahistidine tag (cynomolgus monkey); experiment: BLI; captured MfIL-33-6His pre-complexed with mAb-1 H1M9565N
[8] = molecular target: cynomolgus monkey IL-33 expressed with a C-terminal hexahistidine tag (cynomolgus monkey); experiment: BLI; captured MfIL-33-6His, mAb-1 step with Buffer
[9] = molecular target: cynomolgus monkey IL-33 expressed with a C-terminal hexahistidine tag (cynomolgus monkey); experiment: BLI; captured MfIL-33-6His pre-complexed with mAb-1 H4H9640P
[10] = molecular target: cynomolgus monkey IL-33 expressed with a C-terminal hexahistidine tag (cynomolgus monkey); experiment: BLI; captured MfIL-33-6His, mAb-1 step with Isotype control
[11] = molecular target: cynomolgus monkey IL-33 expressed with a C-terminal hexahistidine tag (cynomolgus monkey); experiment: BLI; captured MfIL-33-6His pre-complexed with mAb-1 H1M9559N
[12] = molecular target: cynomolgus monkey IL-33 expressed with a C-terminal hexahistidine tag (cynomolgus monkey); experiment: BLI; captured MfIL-33-6His pre-complexed with mAb-1 H4H9667P
[13] = molecular target: cynomolgus monkey IL-33 expressed with a C-terminal hexahistidine tag (cynomolgus monkey); experiment: BLI; captured MfIL-33-6His pre-complexed with mAb-1 H1M9566N
[14] = molecular target: cynomolgus monkey IL-33 expressed with a C-terminal hexahistidine tag (cynomolgus monkey); experiment: BLI; captured MfIL-33-6His pre-complexed with mAb-1 H4H9664P

Chain of cynomolgus monkey IL-33 expressed with a C-terminal hexahistidine tag (cynomolgus monkey) (chain, as listed by the source limits assumed): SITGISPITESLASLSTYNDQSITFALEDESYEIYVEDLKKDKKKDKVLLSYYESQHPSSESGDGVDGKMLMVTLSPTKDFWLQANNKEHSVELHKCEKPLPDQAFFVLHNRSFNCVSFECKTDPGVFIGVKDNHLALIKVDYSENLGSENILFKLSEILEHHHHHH
Chain of human IL-33 (R&D Systems, #3625-IL-010/CF) (human) (O95760 112-270 limits assumed): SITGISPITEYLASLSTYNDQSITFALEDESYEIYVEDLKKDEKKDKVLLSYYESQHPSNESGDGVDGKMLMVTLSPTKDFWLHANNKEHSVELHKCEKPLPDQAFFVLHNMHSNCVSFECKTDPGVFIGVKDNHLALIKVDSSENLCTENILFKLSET

## Isotype control 1 (antibody)
[1]
  mAb-1 Binding to the Pre-complex of mAb-2 & hIL-33: 0.01 nm
[2]
  mAb-1 Binding to the Pre-complex of mAb-2 & hIL-33: 0.01 nm
[3]
  mAb-1 Binding to the Pre-complex of mAb-2 & hIL-33: 0.01 nm

## Isotype control 2 (antibody)
[4]
  mAb-1 Binding to the Pre-complex of mAb-2 & hIL-33: 0.02 nm

## isotype control antibody
[5]
  mAb-1 Binding (nm): 0.01 nm
[6]
  mAb-2 Binding to the Pre-complex of mAb-1 & MfIL-33-6xHis: 0.03 nm
[7]
  mAb-2 Binding to the Pre-complex of mAb-1 & MfIL-33-6xHis: 0.04 nm
[8]
  mAb-2 Binding to the Pre-complex of mAb-1 & MfIL-33-6xHis: 0.03 nm
[9]
  mAb-2 Binding to the Pre-complex of mAb-1 & MfIL-33-6xHis: 0.02 nm
[10]
  mAb-2 Binding to the Pre-complex of mAb-1 & MfIL-33-6xHis: 0.01 nm
[11]
  mAb-2 Binding to the Pre-complex of mAb-1 & MfIL-33-6xHis: 0.01 nm
[12]
  mAb-2 Binding to the Pre-complex of mAb-1 & MfIL-33-6xHis: 0.03 nm
[13]
  mAb-2 Binding to the Pre-complex of mAb-1 & MfIL-33-6xHis: 0.04 nm
[14]
  mAb-2 Binding to the Pre-complex of mAb-1 & MfIL-33-6xHis: 0.02 nm
